These results are taken from paper PMC11139964, “L-serine deficiency: on the properties of the Asn133Ser variant of human phosphoserine phosphatase” (Scientific Reports, 2024).

The target in data set [1] is T1, human phosphoserine phosphatase (PSP) (Homo sapiens, UniProt P78330, N133S).
T1 construct: gene PSPH; EC 3.1.3.3
T1 sequence (P78330 1-225 N133S): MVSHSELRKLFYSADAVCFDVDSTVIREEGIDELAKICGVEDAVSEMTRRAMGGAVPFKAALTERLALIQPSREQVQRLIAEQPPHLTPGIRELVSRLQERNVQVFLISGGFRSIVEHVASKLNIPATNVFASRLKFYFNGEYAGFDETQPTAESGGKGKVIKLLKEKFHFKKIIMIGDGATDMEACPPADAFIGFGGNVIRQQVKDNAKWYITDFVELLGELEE
Description: PNP-coupled phosphate release assay (MESG, […] nm). The class given is biochemical. The conditions noted are these: read-out: Asn133Ser.

In data set [2] the target is T2, human phosphoserine phosphatase (PSP) (Homo sapiens, UniProt P78330).
T2 construct: gene PSPH; EC 3.1.3.3
T2 sequence (P78330 1-225): T1 sequence (P78330 1-225 N133S) with S133N
Kind of data set: PNP-coupled phosphate release assay (MESG, […] nm). Format: biochemical. As to conditions: read-out: wild-type.

Data set [3] concerns the molecule itself. Kind of data set: SEC; Superdex 75 Increase 5/150 GL, 50 mM HEPES pH 7.0, 100 mM KCl, room temperature, protein loaded at 10 uM; apparent mass from a calibration curve; monomer-dimer.
Substrate in the data set “purified protein”: N[C@@H](COP(=O)(O)O)C(=O)O
Kind of data set: purified protein. Format: biochemical, Homo sapiens. As to conditions: 50 mM HEPES, 100 mM KCl, 3 mM MgCl2, pH 7.0, 37 °C, 170 μM acetyl-CoA in coupling system.

Changes are numbered by the printed parent chain. In names and notes the source's numbering stands.

Consider `N[C@@H](CO)C(=O)O` [L-serine], for which the IC50 came out at 250 ± 25 µM in data set [1] and 290 ± 20 µM in data set [2].

B1: human phosphoserine phosphatase (PSP), wild-type (enzyme)
chain: SHSELRKLFYSADAVCFDVDSTVIREEGIDELAKICGVEDAVSEMTRRAMGGAVPFKAALTERLALIQPSREQVQRLIAEQPPHLTPGIRELVSRLQERNVQVFLISGGFRSIVEHVASKLNIPATNVFANRLKFYFNGEYAGFDETQPTAESGGKGKVIKLLKEKFHFKKIIMIGDGATDMEACPPADAFIGFGGNVIRQQVKDNAKWYITDFVELLGELEE
notes: phosphoserine phosphatase (PSP), human, EC 3.1.3.3; gene cloned in the NdeI/BamHI sites of pET28a; also called wt PSP; wild-type PSP; source: E. coli BL21(DE3), purified (published procedure)
For the molecule B1, the stoichiometry N (commonly the number of molecules, sites or subunits per partner or assembly) in data set [3] was determined as 2.

B2: Asn133Ser variant of human phosphoserine phosphatase (PSP) (enzyme)
chain: B1 chain with N131S
notes: phosphoserine phosphatase (PSP), human, EC 3.1.3.3, with the patients' missense variant c.398A > G p.(Asn133Ser); mutated pET28a plasmid prepared by GenScript; Natural variant found in patients and in gnomAD; Same construct as m1 apart from the substitution; also called Asn133Ser PSP; N133S PSP; source: E. coli BL21(DE3), purified (> 90% purity, published procedure)
As to B2, the “stoichiometry N” value in data set [3] is 2.

B3: human phosphoserine phosphatase (PSP) (Homo sapiens) (protein)
chain: T1 sequence (P78330 1-225 N133S) with S133N
notes: EC 3.1.3.3
On to B3, for which, in “purified protein”, the Km (as a rule, the concentration of substrate that gives half-maximal velocity) was 42 ± 13 µM; the kcat (in general, the maximal rate divided by the concentration of active sites) amounted to 38 ± 3 s⁻¹; the kcat/Km (in general, the second-order rate constant that governs catalysis at low substrate concentration) amounted to 900000 M⁻¹ s⁻¹.

B4: human phosphoserine phosphatase (PSP) (Homo sapiens; N133S) (protein)
chain: T1 sequence (P78330 1-225 N133S)
notes: EC 3.1.3.3
As for B4, in “purified protein”, the Km was 31 ± 5 µM, the turnover number (kcat) worked out at 28 ± 1 s⁻¹ and the kcat/Km worked out at 900000 M⁻¹ s⁻¹.
